One test deals with T1, H44L4 full-length IgG.
T1 construct: also called autoanti-GPIIb/IIIa
Nature of the test: peptide ELISA (scheme of FIG. 8).

The target in test [1] is T2, GPIa/IIa on a stable K562 cell line (UniProt P17301 30-1181; P05556 21-798, limits assumed).
T2 construct: whole, on cells; also called K562 cell line expressing GPIa/IIa
Nature of the test: flow cytometry on K562 cells expressing GPIa/IIa. Background: In flow cytometry, cells or beads pass a laser one at a time.

Test [2] has as its target T3, GPIIb/IIIa on intact human platelets (human, UniProt P08514 32-1039; P05106 27-788).
T3 construct: whole, on cells; also called platelet GPIIb/IIIa; αIIbβ3
Nature of the test: immunoprecipitation from biotinylated platelets; agrees with ELISA and Glanzmann platelet flow cytometry. (ELISA stands for enzyme-linked immunosorbent assay.)
Description: Precipitated, biotinylated platelet membrane proteins were detected with biotinylated horseradish peroxidase-avidin complexes (ABC Staining Kit, Pierce).

Test [3] has as its target T3, GPIIb/IIIa on intact human platelets. Nature of the test: flow cytometry on intact platelets.
The target in another test is T4, immobilized GPIa/IIa (UniProt P17301 30-1181; P05556 21-798).
T4 construct: Antigen of the PakAuto ELISA kit
Nature of the test: ELISA (PakAuto kit), soluble Fab.

The target in test [4] is T5, vitronectin receptor (αvβ3) on CHO cells (UniProt P06756 31-1048; P05106 27-788, limits assumed).
T5 construct: whole, on cells
Nature of the test: flow cytometry on transfected CHO cells.

T5 sequence (P06756 31-1048 limits assumed, chain 1 of 2): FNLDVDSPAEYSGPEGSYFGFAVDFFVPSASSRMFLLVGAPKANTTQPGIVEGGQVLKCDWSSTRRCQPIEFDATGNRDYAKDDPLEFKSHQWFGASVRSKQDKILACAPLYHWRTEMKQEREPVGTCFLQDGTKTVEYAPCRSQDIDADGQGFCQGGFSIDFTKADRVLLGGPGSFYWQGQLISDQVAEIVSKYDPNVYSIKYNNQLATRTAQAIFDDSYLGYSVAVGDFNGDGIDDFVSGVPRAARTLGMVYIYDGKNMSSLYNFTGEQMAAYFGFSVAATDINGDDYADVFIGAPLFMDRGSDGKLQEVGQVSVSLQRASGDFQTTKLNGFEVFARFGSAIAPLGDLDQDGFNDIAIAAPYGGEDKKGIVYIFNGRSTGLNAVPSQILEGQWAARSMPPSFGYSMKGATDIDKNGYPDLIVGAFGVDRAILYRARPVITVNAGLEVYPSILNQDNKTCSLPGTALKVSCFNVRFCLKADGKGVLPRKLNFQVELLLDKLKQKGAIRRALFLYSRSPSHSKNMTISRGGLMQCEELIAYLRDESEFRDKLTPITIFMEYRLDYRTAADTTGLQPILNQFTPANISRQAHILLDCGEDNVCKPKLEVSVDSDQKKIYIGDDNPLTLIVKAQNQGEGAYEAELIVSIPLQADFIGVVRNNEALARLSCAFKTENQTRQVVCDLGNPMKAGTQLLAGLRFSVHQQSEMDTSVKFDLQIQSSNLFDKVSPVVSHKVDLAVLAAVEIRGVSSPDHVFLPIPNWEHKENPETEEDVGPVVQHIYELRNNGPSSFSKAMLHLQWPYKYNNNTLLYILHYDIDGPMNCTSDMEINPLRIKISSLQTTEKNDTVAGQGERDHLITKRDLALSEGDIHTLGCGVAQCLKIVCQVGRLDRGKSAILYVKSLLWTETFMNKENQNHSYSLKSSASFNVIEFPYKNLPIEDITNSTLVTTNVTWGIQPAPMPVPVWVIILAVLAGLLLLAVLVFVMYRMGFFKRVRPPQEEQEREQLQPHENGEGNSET
T5 sequence (P05106 27-788 limits assumed, chain 2 of 2): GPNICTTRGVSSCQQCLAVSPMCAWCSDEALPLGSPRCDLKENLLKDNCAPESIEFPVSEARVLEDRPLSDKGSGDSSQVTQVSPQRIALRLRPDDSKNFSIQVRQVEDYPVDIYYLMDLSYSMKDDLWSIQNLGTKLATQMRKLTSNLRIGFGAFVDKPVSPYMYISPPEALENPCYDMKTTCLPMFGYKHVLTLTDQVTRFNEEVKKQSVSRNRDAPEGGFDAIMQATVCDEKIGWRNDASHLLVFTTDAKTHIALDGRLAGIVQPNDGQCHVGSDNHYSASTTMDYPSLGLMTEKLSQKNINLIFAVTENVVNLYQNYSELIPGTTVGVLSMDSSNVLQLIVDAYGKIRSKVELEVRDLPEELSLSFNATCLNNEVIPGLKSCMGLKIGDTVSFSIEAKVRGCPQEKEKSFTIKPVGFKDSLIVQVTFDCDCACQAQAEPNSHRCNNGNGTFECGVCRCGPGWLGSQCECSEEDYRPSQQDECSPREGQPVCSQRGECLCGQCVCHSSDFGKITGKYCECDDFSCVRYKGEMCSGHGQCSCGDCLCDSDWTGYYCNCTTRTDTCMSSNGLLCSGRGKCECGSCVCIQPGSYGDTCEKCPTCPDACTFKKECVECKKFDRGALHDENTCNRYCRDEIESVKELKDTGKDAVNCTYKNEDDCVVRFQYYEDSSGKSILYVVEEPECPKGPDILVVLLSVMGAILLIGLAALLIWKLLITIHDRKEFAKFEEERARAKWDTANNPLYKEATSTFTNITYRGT
Protocol for immobilized GPIa/IIa: Antibodies to platelet GPIIb/IIIa, GPIb/IX, or GPIa/IIa were measured by using a PakAuto kit (GTI, Brookfield, Wis.); those to cardiolipin were assessed with a QuantaLite kit (Inova, San Diego, Calif.).

B1: P74-9 (peptide)
peptide: CTWLPYPYC
B1: in the test with H44L4 full-length IgG, the binding result is “binds”.

B2: P73-6 (peptide)
peptide: CETWWRLSC
As for B2, the binding result in the test with H44L4 full-length IgG is “binds”.

B3: H38L75 (Fab, V domains shown)
VH: QVQLVESGGGVVQPGRSLRLSCAASGFTFSNYAMHWVRQAPGKGLEWVAVISYDGSNKYYADSVKGRFTISRDNSKNTLYLQMNSLRPEDTAVYYCARGGVGAFDYWGQGTLVTVSS
VL: EIVLTQSPATLSLSPGERATLSCRASQSVRSFLAWYQQKPGQAPRLLIYDTSKRPTGIPDRFSGSGSGTDFTLTISSLEPEDFAVYYCQQRSSWPLTFGGGTTVEIK
notes: Soluble Fab
Take B3: the binding result in test [1] and in test [2] was “no binding” in each case.

B4: H38L76 (Fab, V domains shown)
VH: QVQLVESGGGVVQPGRSLRLSCAASGFTFSNYAMHWVRQAPGKGLEWVAVISYDGSNKYYADSVKGRFTISRDNSKNTLYLQMNSLRPEDTAVYYCARGGVGAFDYWGQGTLVTVSS
VL: not shown
notes: Soluble Fab
Regarding B4, the binding result in test [1] and in test [2] was “no binding” in each case.

B5: H37L92 (Fab, V domains shown)
VH: QVQLVESGGGVVQPGRSLRLSCAASGFTFSNYAMHWVRQAPGKGLEWVAVISYDGSNKYYADSVKGRFTISRDNSKNTLYLQMNSLRPEDTAVYYCARGGVAAFDYWGQGTLVTVSS
VL: QSALTQPASVSGSPGQSITISCTGTSSDVGGYKYVSWYQQHPGKAPKLIIYDVTNRPSGVSKRFSGSKSGNTASLTISGLQAEDEADYYCSSYTSRSTPVFGGGTKVTVL
notes: Soluble Fab
For the molecule B5, the binding result in test [1] and in test [2] was “no binding” each time.

B6: H38L74 (Fab, V domains shown)
VH: QVQLVESGGGVVQPGRSLRLSCAASGFTFSNYAMHWVRQAPGKGLEWVAVISYDGSNKYYADSVKGRFTISRDNSKNTLYLQMNSLRPEDTAVYYCARGGVGAFDYWGQGTLVTVSS
VL: EIVLTQSPATLSLSPGERATLSCRASQSVSSYLAWYQQKPGQAPRLLIYDASNRATGIPARFSGSGSGTDFTLTISSLEPEDFAVYYCQQRSNWPTFGGGTKVEIK
notes: Soluble Fab
Regarding B6, the binding result in test [1] and in test [2] was “no binding” each time.

B7: H36L76 (Fab, V domains shown)
VH: QVQLVESGGGVVQPGRSLRLSCAASGFTFSSYAMHWVRQAPGKGLEWVAVISYDGSNKYYADSVKGRFTISRDNSKNTLYLQMNSLRPEDTAVYYCARGGVAAFDYWGQGTLVTVSS
VL: not shown
notes: Soluble Fab, clone B
As to B7, the binding result in test [1] and in test [2] was “no binding” in each case.

B8: P74-3 (peptide)
peptide: CLIPWMFNC
Regarding B8, the binding result in the test with H44L4 full-length IgG was “binds”.

B9: P74-1a (peptide)
peptide: CVVQWMFQC
B9: the binding result in the test with H44L4 full-length IgG was “binds”.

B10: P74-8 (peptide)
peptide: CVVSWMFQC
With B10, in the test with H44L4 full-length IgG, the binding result was “binds”.

B11: P73-11 (peptide)
peptide: CLVPWMFHC
For B11, the binding result in the test with H44L4 full-length IgG was “binds”.

B12: H10L122 (Fab, V domains shown)
VH: QVQLVQSGAEVKKPGASVKVSCKASGYSFSNYYMHWVRQAPGEGLEWMGIINPKGGTTSYAQKFQGRVTIAADKFTNSAYMEPSSLRYEDTAVYFCARAKFSWSPDIWGQGTVVTVSS
VL: QAVVTQEPSLTVSPGGTVTLTCDSSTGAVTSGHYPYWLQQKPGQAPRTLIYDTHNKHSWTPGRFSGSLLGGKAALTLSGAQPEDEAEYYCSLSYSAVWVFGGGTKLTVL
notes: Soluble Fab
On to B12, for which the binding result in test [1] and in test [2] was “no binding” each time.

B13: P124-11 (peptide)
peptide: LPFNTLIVPGRT
In the case of B13, the binding result in the test with H44L4 full-length IgG is “binds”.

B14: P73-7 (peptide)
peptide: CQHKLPSNC
As for B14, in the test with H44L4 full-length IgG, the binding result was “binds”.

B15: P73-10 (peptide)
peptide: CTHWWRPAC
Turning to B15, the binding result in the test with H44L4 full-length IgG is listed as “binds”.

B16: P123-11 (peptide)
peptide: LPFDTIIKPWPV
For the molecule B16, the binding result in the test with H44L4 full-length IgG is “binds”.

B17: P74-5 (peptide)
peptide: CVTSKPHTC
As to B17, in the test with H44L4 full-length IgG, the binding result is “binds”.

B18: P4-7 (peptide)
peptide: FPLNTIIHSAVY
notes: From the 12-mer linear phage library; also called 12-mer linear peptide
Regarding B18, in the test with H44L4 full-length IgG, the binding result is reported as “binds”.

B19: P3-4 (peptide)
peptide: CPSLAHRWC
notes: From the Cys-7-mer-Cys constrained phage library; also called C7C constrained peptide
For B19, the binding result in the test with H44L4 full-length IgG is recorded as “binds”.

B20: H29L104 (Fab, V domains shown)
VH: EVQLVESGGGLVKPGGSLRLSCAASGFTFSSYSMNWVRQAPGKGLEWVSSISSSSSYIYYADSVKGRFTISRDNAKNSLYLQMNSLRAEDTAVYYCARDHPNYYDSSGLFDYWGQGTLVTVSS
VL: SSELTQDPAVSVALGQTVRITCQGDSLRSYYASWYQQKPGQAPVLVIYGKNYRPSGIPDRFSGSSSGNTASLTITGAQAEDEADYYCNSRDSSGNHWVFGGGTKLTVL
notes: Soluble Fab
B20: the binding result in test [1] and in test [2] was “no binding” throughout.

B21: P123-8 (peptide)
peptide: FLPISTLITPSG
As for B21, the binding result in the test with H44L4 full-length IgG was “binds”.

B22: P124-1 (peptide)
peptide: IDVWWLSTQGVP
Take B22: in the test with H44L4 full-length IgG, the binding result is given as “binds”.

B23: P123-10 (peptide)
peptide: WSLHTLGLPFVF
For the molecule B23, the binding result in the test with H44L4 full-length IgG is “binds”.

B24: P124-8 (peptide)
peptide: KHSMPINAILPP
Regarding B24, the binding result in the test with H44L4 full-length IgG is reported as “binds”.

B25: P73-2 (peptide)
peptide: CIVEHFFHC
Consider B25, for which the binding result with H44L4 full-length IgG was “binds”.

B26: P4-2a (peptide)
peptide: CIVPWFFHC
notes: as for B19
On to B26, for which, in the test with H44L4 full-length IgG, the binding result is “binds”.

B27: P74-4 (peptide)
peptide: CVVPWFFHC
B27: in the test with H44L4 full-length IgG, the binding result is “binds”.

B28: H44L126 (Fab, V domains shown)
VH: QVQLVESGGGVVQPGRSLRLSCAASGFTFSYYAMVWVRQAPGKGLEWVAVISNDGRNKYYADSVKGRFTISRDNAKNTLYLQMNSLRVEDTAVYYCARLGYWGPGTLVTVSS
VL: DIQMTQSPSSLSASVGDRVIVTCRASQSISSYVSWYQQKPGKAPKLLISTTSTLQSGVPSRFSGSASGTDFTLTISSLQPEDFATYYCQQSSSRPLTFGQGTKVEIK
notes: Soluble Fab
Take B28: in test [3], the binding result is listed as “no binding”.

B29: H44L127 (Fab, V domains shown)
VH: QVQLVESGGGVVQPGRSLRLSCAASGFTFSYYAMVWVRQAPGKGLEWVAVISNDGRNKYYADSVKGRFTISRDNAKNTLYLQMNSLRVEDTAVYYCARLGYWGPGTLVTVSS
VL: DIQMTQSPSSLSASVGDRVTITCRASQTITSFLNWYQQKRGKAPKLLIYGASTLQSGVPSRFSGSGSGTDFTLTISSLQPEDVATYYCQQTYSQPLTFGQGTKVEIK
notes: Soluble Fab
In the case of B29, the binding result in test [3] is listed as “no binding”.

B30: H44L4 (Fab, V domains shown)
VH: QVQLVESGGGVVQPGRSLRLSCAASGFTFSYYAMVWVRQAPGKGLEWVAVISNDGRNKYYADSVKGRFTISRDNAKNTLYLQMNSLRVEDTAVYYCARLGYWGPGTLVTVSS
VL: DIQMTQSPSSLSVSVGDRVTITCRASQTITMYLNWYQQKPGKAPKLLIYAGSSLPSGVPPRFSGSGSGTDFTLTISSLQPEDFATYYCQQSYSTLTFGGGTKVEMK
notes: their results are put here; also called anti-GPIIb/IIIa platelet autoantibody; ITP patient A antibody H44L4
In the case of B30, the binding result (with immobilized GPIa/IIa; in test [4]) was “no binding” throughout.

B31: H44L128 (Fab, V domains shown)
VH: QVQLVESGGGVVQPGRSLRLSCAASGFTFSYYAMVWVRQAPGKGLEWVAVISNDGRNKYYADSVKGRFTISRDNAKNTLYLQMNSLRVEDTAVYYCARLGYWGPGTLVTVSS
VL: DIQMTQSPSSLSAFVGDRVTITCRASQSITSYLNWYQQKPGKAPNLLIYAASSLQSGVPSRFSGSGSGTEFTLTISSLQPEDYATYYCQQRYSYILTFGQGTKVEIK
notes: Soluble Fab
B31: in test [3], the binding result was “no binding”.

B32: P4-12 (peptide)
peptide: DLRLNSLIVPWS
notes: as for B18
On to B32, for which, in the test with H44L4 full-length IgG, the binding result was “binds”.

B33: P124-2 (peptide)
peptide: FPLMSLINPWRT
B33: the binding result in the test with H44L4 full-length IgG is “binds”.

B34: P73-9 (peptide)
peptide: CIIPFMFQC
As to B34, in the test with H44L4 full-length IgG, the binding result is given as “binds”.

The record behind these values is patent US8216581 (University of Pennsylvania, dated 2012).
